Measurements reported in patent publication US20190276542A1 (QILU PUGET SOUND BIOTHERAPEUTICS, published 2019).
Where a chain is given by its changes, count along the chain named.

B1: anti-hPD1 antibody #6 (antibody, human IgG4, V domains shown)
VH: QVQLVQSGAEVKKPGASVKVSCKASGYTFTNYWIHWVRQAPGQGLEWMGEIDPYDSYTNYNQKFKGRVTMTGDTSTSTVYMELSSLTSEDTAVYYCARPGYTYGGMDFWGQGTLVTVSS
VL: DIQMTQSPSSLSASVGDRVTITCRSSQSLFNSGNQKNYLAWYQQKPGKPPKLLIYGASTRESGVPARFSGSGSGTDFTLTISSLQPEDVATYYCQNDHYYPYTFGGGTKVEIK
notes: also called Anti-hPD1 #6; Anti-PD1 #6
B2: anti-hPD1 antibody #2 (antibody, human IgG4, V domains shown)
VH: B1 VH with N31S, I34M, G72V, T74K, T87R, Y101N, F108Y
VL: B1 VL with P49V, E61D, A66Y
notes: also called Anti-hPD1 #2; Anti-PD1 #2
B3: anti-hPD1 antibody #9 (antibody, human IgG4, V domains shown)
VH: B1 VH with N31S, I34M, G72I, T74K, Y101F
VL: DIVMTQSPDSLAVSLGERATINCRSSQSLLISGNQKNYLAWYQQKPGQPPKLLIYGASTRDSGVPDRFSGSGSGTDFTLTISSLQAEDVAVYYCQNNHYYPYTFGGGTKVEIK
notes: also called Anti-hPD1 #9; Anti-PD1 #9
B4: anti-hPD1 antibody #8 (antibody, human IgG4, V domains shown)
VH: B1 VH with G72I, T87R, Y101N
VL: B3 VL with R24K, L30F
notes: also called Anti-hPD1 #8
B5: anti-hPD1 antibody #15 (antibody, human IgG4, V domains shown)
VH: B1 VH with I34M, G72R, S77N, T87R, Y101L
VL: B1 VL with A66Y
notes: also called Anti-hPD1 #15
B6: anti-hPD1 antibody #11 (antibody, human IgG4, V domains shown)
VH: B1 VH with N31S, Y54S, S77N
VL: B3 VL with N22S, L30F
notes: also called Anti-hPD1 #11
B7: anti-hPD1 antibody #12 (antibody, human IgG4, V domains shown)
VH: B1 VH with I34M, Y54F, G72I, S77N, T87R, Y101F
VL: B3 VL with N22S
notes: also called Anti-hPD1 #12
B8: anti-hPD1 antibody #13 (antibody, human IgG4, V domains shown)
VH: B1 VH with N31S, G72V, T74K, S77N, Y101L
VL: B1 VL with R24K, F30L, E61D, R67K
notes: also called Anti-hPD1 #13
B9: anti-hPD1 antibody #5 (antibody, human IgG4, V domains shown)
VH: B1 VH with I34M, Y54F, G72R, T74K, T87R, Y101F
VL: B1 VL with F30L, P49L, E61D, A66S, P86A
notes: also called Anti-hPD1 #5; Anti-PD1 #5
B10: anti-hPD1 antibody #14 (antibody, human IgG4, V domains shown)
VH: B1 VH with T74K
VL: B1 VL with R24K, P49L, E61D, A66S
notes: also called Anti-hPD1 #14; Anti-PD1 #14
B11: anti-hCTLA4 antibody 2F1 (antibody, human IgG1, V domains shown)
VH: QVQLVESGGGVVEPGRSLRLSCAASGFTFSSYGMHWVRQAPGKGLEWVAVIWYHRSEKDYADSAKGRFTISRDNSKNTLYLQMNSLRAEDTAVYYCARAGLLGYFDYWGQGTLVTVSS
VL: EIVLTQSPGTLSLSPGERATLSCRASQSINSYLAWYQQKPGQAPRPLIYGVSSRATGIPDRFSGSGSGTDFTLTISRLEPEDFAVYYCQQYGMYPFTFGPGTKVDIK
B12: anti-hCTLA4 antibody 3G1 (antibody, human IgG1, V domains shown)
VH: B11 VH with A23T, H54K, R55S, D59Y, A99G
VL: B11 VL
B13: anti-hCTLA4 antibody 8B4 (antibody, human IgG1, V domains shown)
VH: B11 VH with H54Q, R55P, L101F
VL: B11 VL with I29V
B14: anti-hCTLA4 antibody 1E1 (antibody, human IgG1, V domains shown)
VH: B11 VH with H54N, R55P
VL: B11 VL with N30S, Y94S
B15: anti-hCTLA4 antibody 12G4 (antibody, human IgG1, V domains shown)
VH: B11 VH with H54N, R55T, E57K, A99G
VL: B11 VL with N30T, M93R
B16: anti-hCTLA4 antibody 5B2 (antibody, human IgG1, V domains shown)
VH: B11 VH with A23T, H54K, R55S
VL: B11 VL with I29L, N30S, P46L
B17: anti-hCTLA4 antibody 7A4 (antibody, human IgG1, V domains shown)
VH: B11 VH with A23T, H54Q, R55T
VL: B11 VL with I29V, N30S
B18: anti-hCTLA4 antibody 6E3 (antibody, human IgG1, V domains shown)
VH: B11 VH with H54K, R55T
VL: B11 VL with I29V, N30T, Y94S
B19: anti-hCTLA4 antibody 9C4 (antibody, human IgG1, V domains shown)
VH: B11 VH with H54K, R55S
VL: B11 VL with I29L, M93I
B20: anti-hCTLA4 antibody 4H1 (antibody, human IgG1, V domains shown)
VH: B11 VH with A23T, H54N, R55P, E57K, A99G, L102F
VL: B11 VL with I29V, N30S

Assays:
[1] = target: T1, human PD1 expressed on a cell surface (human, UniProt Q15116 25-288); experiment: cell-based or functional assay
T1 sequence (Q15116 25-288): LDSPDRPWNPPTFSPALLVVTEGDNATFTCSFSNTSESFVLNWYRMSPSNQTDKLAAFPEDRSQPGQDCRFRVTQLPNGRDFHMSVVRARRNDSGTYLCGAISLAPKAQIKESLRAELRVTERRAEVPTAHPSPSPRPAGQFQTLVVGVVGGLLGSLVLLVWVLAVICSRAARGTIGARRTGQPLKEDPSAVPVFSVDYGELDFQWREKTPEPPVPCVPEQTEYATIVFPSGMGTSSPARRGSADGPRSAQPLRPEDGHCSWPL

[2] = target: T1, human PD1 expressed on a cell surface; experiment: flow cytometry on OKT3-activated human T cells, CD4+ cells
Method: (§1) The following experiment tested whether the selected anti-hPD1 antibodies can bind to native PD1 expressed on the surface of activated T cells. Human PBMCs were pre-activated with OKT3 (an anti-CD3 antibody) at a concentration of 1 μg/ml. After three days, the PBMCs, which were mostly activated T cells at this time, were distributed into a 96 well microtiter plate using 0.1×10⁶ cells/well. […] The antibody bound to CD4⁺ T cells and CD4⁻ T cells (which were predominately CD8⁺ T cells) was detected using anti-hlgG-FITC and an anti-CD4 antibody labeled with allophycocyanin (anti-CD4-APC).
(§2) The samples were analyzed by flow cytometry (FACScalibur, BD), and binding was reported as an MFI. EC₅₀'s for binding were calculated using GraphPad Prism software.

[3] = target: T1, human PD1 expressed on a cell surface; experiment: flow cytometry on OKT3-activated human T cells, CD4- cells
Method: as §1, §2

[4] = target: T2, human CTLA4 expressed on Jurkat T cells (human, UniProt P16410 36-223); experiment: cell-based or functional assay
T2 sequence (P16410 36-223): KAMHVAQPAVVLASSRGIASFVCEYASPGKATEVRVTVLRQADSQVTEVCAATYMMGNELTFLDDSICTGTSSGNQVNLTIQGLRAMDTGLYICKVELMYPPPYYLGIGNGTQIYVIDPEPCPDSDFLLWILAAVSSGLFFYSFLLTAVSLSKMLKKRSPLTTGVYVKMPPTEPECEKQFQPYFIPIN

[5] = target: T2, human CTLA4 expressed on Jurkat T cells; experiment: flow cytometry on Jurkat T cells expressing hCTLA4
From the text: After washing, the surface-bound anti-hCTLA4 antibodies were detected with a polyclonal anti-hlgG (Fc-specific) antibody labeled with fluorescein isothiocyanate (FITC)(anti-hlgG-FITC). Binding of anti-hCTLA4 antibodies were detected by flow cytometric analysis. The results were reported a geometric mean fluorescence intensity (MFI) using FlowJo software (FLOWJO, L.L.C., Ashland, Oreg., USA).

[6] = target: T3, CTLA4-ECD_Fc, soluble hCTLA4 comprising the extracellular domain of hCTLA4 fused to an Fc fragment (human, UniProt P16410 36-161); experiment: flow cytometry; inhibition of CTLA4-ECD_Fc binding to Raji cells (hB7-1/hB7-2)
T3 construct: extracellular domain; not shown: Fc fragment
T3 sequence (P16410 36-161): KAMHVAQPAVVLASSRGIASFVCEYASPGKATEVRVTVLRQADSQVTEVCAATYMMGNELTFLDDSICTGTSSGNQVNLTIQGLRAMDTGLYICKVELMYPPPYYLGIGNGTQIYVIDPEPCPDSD
Method: In a first assay, inhibition of hCTLA4 binding to hB7-1 and hB7-2 expressed on the surface of Raji cells was assessed. Raji cells, which are human cells, express high levels of hB7-1 and hB7-2. […] After 30 minutes, 1×10⁵ Raji cells were added to each well and incubated for another 30 minutes. […] IC₅₀'s were calculated using GraphPad Prism software (GraphPad, Inc., La Jolla, Calif., USA).

Row | Binder | IC50, luciferase (RLU), PD1 dual cell reporter assay (Jurkat cells with hPD1 plus CHO-K1 cells with hPDL1) [1] [nM] | EC50 [2] [nM] | EC50 [3] [nM] | IC50, luciferase (RLU), CTLA4 Dual-Cell Reporter Assay (Jurkat cells with hCTLA4 plus Raji cells) [4] [nM] | EC50 [5] [nM] | IC50 [6] [nM]
1 | B1 | 3.85 | 0.667 | 0.617 |  |  | 
2 | B2 | 2.45 | 0.398 | 0.416 |  |  | 
3 | B3 | 3.13 | 1.01 | 1.48 |  |  | 
4 | B4 |  | 0.647 | 0.904 |  |  | 
5 | B5 |  | 0.72 | 0.627 |  |  | 
6 | B6 |  | 33.7 | 24.7 |  |  | 
7 | B7 |  | 0.849 | 1.16 |  |  | 
8 | B8 |  | 0.998 | 1.46 |  |  | 
9 | B9 | 3 | 0.974 | 1.12 |  |  | 
10 | B10 | 2.69 | 0.39 | 0.449 |  |  | 
11 | B11 |  |  |  | 20.5 | 0.276 | 9.1
12 | B12 |  |  |  | > 340 | 3.1 | 3.5
13 | B13 |  |  |  | 19 | 0.384 | 3.8
14 | B14 |  |  |  | 28.2 | 0.697 | 6.3
15 | B15 |  |  |  | 13.9 | 0.15 | 3.5
16 | B16 |  |  |  | > 340 | 2.93 | 11.5
17 | B17 |  |  |  | 10.9 | 0.217 | 19.8
18 | B18 |  |  |  | 30 | 0.437 | 14.1
19 | B19 |  |  |  | 25.3 | 0.473 | 15.7
20 | B20 |  |  |  | 73.8 | 0.189 | 8.2
